Measurements reported in patent publication US20020123042.

B1: wild-type huBUB1 (full-length, plasmid p385-1) (protein)
chain: MDTPENVLQMLEAHMQSYKGNDPLGEWERYIQWVEENFPENKEYLITLLEHLMKEFLDKKKYHNDPRFISYCLKFAEYNSDLHQFFEFLYNHGIGTLSSPLYIAWAGHLEAQGELQHASAVLQRGIQNQAEPREFLQQQYRLFQTRLTETHLPAQARTSEPLHNVQVLNQMITSKSNPGNNMACISKNQGSELSGVISSACDKESNMERRVITISKSEYSVHSSLASKVDVEQVVMYCKEKLIRGESEFSFEELRAQKYNQRRKHEQWVNEDRHYMKRKEANAFEEQLLKQKMDELHKKLHQVVETSHEDLPASQERSEVNPARMGPSVGSQQELRAPCLPVTYQQTPVNMEKNPREAPPVVPPLANAISAALVSPATSQSIAPPVPLKAQTVTDSMFAVASKDAGCVNKSTHEFKPQSGAEIKEGCETHKVANTSSFHTTPNTSLGMVQATPSKVQPSPTVHTKEALGFIMNMFQAPTLPDISDDKDEWQSLDQNEDAFEAQFQKNVRSSGAWGVNKIISSLSSAFHVFEDGNKENYGLPQPKNKPTGARTFGERSVSRLPSKPKEEVPHAEEFLDDSTVWGIRCNKTLAPSPKSPGDFTSAAQLASTPFHKLPVESVHILEDKENVVAKQCTQATLDSCEENMVVPSRDGKFSPIQEKSPKQALSSHMYSASLLRLSQPAAGGVLTCEAELGVEACRLTDTDAAIAEDPPDAIAGLQAEWMQMSSLGTVDAPNFIVGNPWDDKLIFKLLSGLSKPVSSYPNTFEWQCKLPAIKPKTEFQLGSKLVYVHHLLGEGAFAQVYEATQGDLNDAKNKQKFVLKVQKPANPWEFYIGTQLMERLKPSMQHMFMKFYSAHLFQNGSVLVGELYSYGTLLNAINLYKNTPEKVMPQGLVISFAMRMLYMIEQVHDCEIIHGDIKPDNFILGNGFLEQDDEDDLSAGLALIDLGQSIDMKLFPKGTIFTAKCETSGFQCVEMLSNKPWNYQIDYFGVAATVYCMLFGTYMKVKNEGGECKPEGLFRRLPHLDMWNEFFHVMLNIPDCHHLPSLDLLRQKLKKVFQQHYTNKIRALRNRLIVLLLECKRSRK
B2: full-length HA-epitope tagged huBUB1 (plasmid p396-1) (protein)
chain: GGGGGGMDTPENVLQMLEAHMQSYKGNDPLGEWERYIQWVEENFPENKEYLITLLEHLMKEFLDKKKYHNDPRFISYCLKFAEYNSDLHQFFEFLYNHGIGTLSSPLYIAWAGHLEAQGELQHASAVLQRGIQNQAEPREFLQQQYRLFQTRLTETHLPAQARTSEPLHNVQVLNQMITSKSNPGNNMACISKNQGSELSGVISSACDKESNMERRVITISKSEYSVHSSLASKVDVEQVVMYCKEKLIRGESEFSFEELRAQKYNQRRKHEQWVNEDRHYMKRKEANAFEEQLLKQKMDELHKKLHQVVETSHEDLPASQERSEVNPARMGPSVGSQQELRAPCLPVTYQQTPVNMEKNPREAPPVVPPLANAISAALVSPATSQSIAPPVPLKAQTVTDSMFAVASKDAGCVNKSTHEFKPQSGAEIKEGCETHKVANTSSFHTTPNTSLGMVQATPSKVQPSPTVHTKEALGFIMNMFQAPTLPDISDDKDEWQSLDQNEDAFEAQFQKNVRSSGAWGVNKIISSLSSAFHVFEDGNKENYGLPQPKNKPTGARTFGERSVSRLPSKPKEEVPHAEEFLDDSTVWGIRCNKTLAPSPKSPGDFTSAAQLASTPFHKLPVESVHILEDKENVVAKQCTQATLDSCEENMVVPSRDGKFSPIQEKSPKQALSSHMYSASLLRLSQPAAGGVLTCEAELGVEACRLTDTDAAIAEDPPDAIAGLQAEWMQMSSLGTVDAPNFIVGNPWDDKLIFKLLSGLSKPVSSYPNTFEWQCKLPAIKPKTEFQLGSKLVYVHHLLGEGAFAQVYEATQGDLNDAKNKQKFVLKVQKPANPWEFYIGTQLMERLKPSMQHMFMKFYSAHLFQNGSVLVGELYSYGTLLNAINLYKNTPEKVMPQGLVISFAMRMLYMIEQVHDCEIIHGDIKPDNFILGNGFLEQDDEDDLSAGLALIDLGQSIDMKLFPKGTIFTAKCETSGFQCVEMLSNKPWNYQIDYFGVAATVYCMLFGTYMKVKNEGGECKPEGLFRRLPHLDMWNEFFHVMLNIPDCHHLPSLDLLRQKLKKVFQQHYTNKIRALRNRLIVLLLECKRSRK

Key:
[1] = molecular target: wild type huBUB3 (plasmid p291-2)
Sequence of wild type huBUB3 (plasmid p291-2) (chain, as listed by the source): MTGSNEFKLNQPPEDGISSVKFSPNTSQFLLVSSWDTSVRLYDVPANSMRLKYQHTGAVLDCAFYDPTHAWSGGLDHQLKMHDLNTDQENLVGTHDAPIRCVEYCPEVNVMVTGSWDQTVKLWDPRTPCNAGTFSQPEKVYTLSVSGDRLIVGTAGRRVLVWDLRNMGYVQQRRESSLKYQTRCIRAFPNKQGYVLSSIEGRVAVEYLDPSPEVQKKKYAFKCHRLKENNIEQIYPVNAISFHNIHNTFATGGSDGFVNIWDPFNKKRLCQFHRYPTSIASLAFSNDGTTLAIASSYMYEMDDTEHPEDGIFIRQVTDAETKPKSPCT

Sequence of PHAS-I (Strategene) (Q60876 2-117): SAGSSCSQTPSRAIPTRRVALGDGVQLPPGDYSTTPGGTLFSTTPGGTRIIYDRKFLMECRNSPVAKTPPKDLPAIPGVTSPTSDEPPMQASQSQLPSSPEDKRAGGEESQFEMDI

| Protein | phosphorylation of an exogenous substrate (33P-ATP kinase reaction of immunopurified FLAG-BUB3/BUB1, SDS-PAGE, autoradiography) (PHAS-I (Strategene)) | autophosphorylation of HA-huBUB1 [1] |
| --- | --- | --- |
| B1 | only PHAS-I demonstrated clear huBUB1-dependent activity as a kinase substrate | – |
| B2 | – | Co-translation of huBUB3 may stimulate this autophosphorylation activity. |
